From patent US20220096548A1
Each block holds one binder with its values, some of them ahead of it.

Tests used:
human IL-6 (human) = human IL-6 (human) (UniProt P05231); assay: cell-based or functional assay
[1] = target: IL-6R expressed on HEK-Blue IL-6 reporter cells (UniProt P08887); assay: cell-based or functional assay
Chain of UniProt P08887 (P08887 20-468 limits assumed): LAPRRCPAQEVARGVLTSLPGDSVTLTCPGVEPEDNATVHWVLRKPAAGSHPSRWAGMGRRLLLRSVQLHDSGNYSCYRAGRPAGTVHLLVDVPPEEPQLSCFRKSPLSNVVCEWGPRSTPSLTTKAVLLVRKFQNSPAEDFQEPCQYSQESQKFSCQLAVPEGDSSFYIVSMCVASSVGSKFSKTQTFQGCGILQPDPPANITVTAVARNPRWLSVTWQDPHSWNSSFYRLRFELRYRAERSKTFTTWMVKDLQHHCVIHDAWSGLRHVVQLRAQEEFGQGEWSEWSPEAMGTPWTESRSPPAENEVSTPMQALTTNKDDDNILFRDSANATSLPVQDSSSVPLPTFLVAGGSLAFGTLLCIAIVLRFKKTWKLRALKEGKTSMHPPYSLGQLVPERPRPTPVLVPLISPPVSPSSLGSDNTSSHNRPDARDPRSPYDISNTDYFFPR

Chain of UniProt P05231 (P05231 30-212 limits assumed): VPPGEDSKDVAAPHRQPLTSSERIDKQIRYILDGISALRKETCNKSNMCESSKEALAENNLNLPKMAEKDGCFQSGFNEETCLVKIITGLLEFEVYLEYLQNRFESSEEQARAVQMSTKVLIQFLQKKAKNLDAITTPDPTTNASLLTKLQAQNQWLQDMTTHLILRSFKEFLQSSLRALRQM

inhibition of IL-6 signaling (SEAP production by HEK-Blue IL-6 reporter cells, 2 ng/ml human IL-6) (human IL-6 (human)): < 60%
B1: scFv antibody derived from reference Antibody 3 (binding to IL-6), fused with an Fc fragment of human IgG1 (Fc fusion, not shown: a dimerising Fc or GST)
scFv: QIVLIQSPAIMSASPGEKVTMTCSASSSVSYMYWYQQKPGSSPRLLIYDTSNLASGVPVRFSGSGSGTSYSLTISRMEAEDAATYYCQQWSGYPYTFGGGTKLEIKGGGGSGGGGSGGGGSEVQLVESGGKLLKPGGSLKLSCAASGFTFSSFAMSWFRQSPEKRLEWVAEISSGGSYTYYPDTVTGRFTISRDNAKNTLYLEMSSLRSEDTAMYYCARGLWGYYALDYWGQGTSVTVSS

inhibition of IL-6 signaling (SEAP production by HEK-Blue IL-6 reporter cells, 2 ng/ml human IL-6) [1]: < 60%
B3: scFv antibody derived from reference Antibody 4 (binding to IL-6R), fused with an Fc fragment of human IgG1 (Fc fusion, not shown: a dimerising Fc or GST)
scFv: QVQLQESGPGLVRPSQTLSLTCTVSGYSITSDHAWSWVRQPPGRGLEWIGYISYSGITTYNPSLKSRVTMLRDTSKNQFSLRLSSVTAADTAVYYCARSLARTTAMDYWGQGSLVTVSSGGGGSGGRASGGGGSGGGGSDIQMTQSPSSLSASVGDRVTITCRASQDISSYLNWYQQKPGKAPKLLIYYTSRLHSGVPSRFSGSGSGTDFTFTISSLQPEDIATYYCQQGNTLPYTFGQGTKVEIK

More lines, now with the values behind:

B2: scFv antibody derived from reference Antibody 1 (binding to IL-6R), fused with an Fc fragment of human IgG1 (Fc fusion, not shown: a dimerising Fc or GST)
scFv: DIQMTQSPSSVSASVGDRVTITCRASQGISSWLAWYQQKPGKAPKLLIYGASSLESGVPSRFSGSGSGTDFTLTISSLQPEDFASYYCQQANSFPYTFGQGTKLEIKGGGGSGGGGSGGGGSEVQLVESGGGLVQPGRSLRLSCAASRFTFDDYAMHWVRQAPGKGLEWVSGISWNSGRIGYADSVKGRFTISRDNAENSLFLQMNGLRAEDTALYYCAKGRDSFDIWGQGTMVTVSS
inhibition of IL-6 signaling (SEAP production by HEK-Blue IL-6 reporter cells, 2 ng/ml human IL-6) [1]: 100%

B4: scFv antibody derived from reference Antibody 2 (binding to IL-6), fused with an Fc fragment of human IgG1 (Fc fusion, not shown: a dimerising Fc or GST)
scFv: EIVLTQSPATLSLSPGERATLSCSASISVSYMYWYQQKPGQAPRLLIYDMSNLASGIPARFSGSGSGTDFTLTISSLEPEDFAVYYCMQWSGYPYTFGGGTKVEIKGGGGSGGGGSGGGGSEVQLVESGGGLVQPGGSLRLSCAASGFTFSPFAMSWVRQAPGKGLEWVAKISPGGSWTYYSDTVTGRFTISRDNAKNSLYLQMNSLRAEDTAVYYCARQLWGYYALDIWGQGTTVTVSS
inhibition of IL-6 signaling (SEAP production by HEK-Blue IL-6 reporter cells, 2 ng/ml human IL-6) (human IL-6 (human)): 100%
